Results on one molecule are retold here after paper PMC8790125, “Molecular Mechanism of SARS-CoVs Orf6 Targeting the Rae1–Nup98 Complex to Compete With mRNA Nuclear Export” (Frontiers in Molecular Biosciences, 2021).

The test has as its target T1, Rae1–Nup98_(GLEBS) complex (UniProt P78406 1-368; P52948 157-213).
T1 construct: Deca-histidine tags are called non-cleavable; also called Rae1–Nup98 complex; Rae1–Nup98 heterodimer; not shown: His10, C-terminal, kept; His10, N-terminal, kept
The test is described as follows: ITC. The conditions noted are these: both partners purified.

T1 sequence (P78406 whole entry, chain 1 of 2): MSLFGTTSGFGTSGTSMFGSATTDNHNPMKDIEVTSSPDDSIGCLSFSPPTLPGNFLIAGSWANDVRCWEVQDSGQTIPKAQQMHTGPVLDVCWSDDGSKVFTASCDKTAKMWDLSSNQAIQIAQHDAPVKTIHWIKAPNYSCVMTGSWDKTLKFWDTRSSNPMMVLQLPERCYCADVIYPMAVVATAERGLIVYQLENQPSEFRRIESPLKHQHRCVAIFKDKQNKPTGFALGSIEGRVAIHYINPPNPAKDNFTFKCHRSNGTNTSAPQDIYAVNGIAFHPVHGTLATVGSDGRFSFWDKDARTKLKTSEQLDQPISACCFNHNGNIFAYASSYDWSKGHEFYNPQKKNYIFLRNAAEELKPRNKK
T1 sequence (P52948 157-213, chain 2 of 2): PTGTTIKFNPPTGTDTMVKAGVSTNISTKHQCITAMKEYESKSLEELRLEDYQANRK

With SKSLTENKYSQLDEEQPMEID (also called SARS-CoV-2 Orf6 peptide) [SARS-CoV-2 Orf6CTT (21-mer peptide, residues 41–61 of SARS-CoV-2 Orf6)], binding was put at a Kd of 142 nM and the “stoichiometry N” value was found to be 1.

What is called Kd is a measure of binding affinity in units of concentration. A higher Kd goes with weaker binding. What is called stoichiometry N is the number of molecules, sites or subunits per partner or assembly.
